From patent US20150266951A1 (SNU R AND DB FOUNDATION, published 2015)

T1: recombinant human IP-10 protein (IFN-γ-inducible protein 10) (human, UniProt P02778 22-98)
T1 construct: also called IP-10 antigen; recombinant IP-10
T1 sequence: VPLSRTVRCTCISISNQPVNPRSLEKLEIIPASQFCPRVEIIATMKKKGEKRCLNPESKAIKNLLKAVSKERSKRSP

T2: Epitope 4 of IP-10 (amino acids 61-98), recombinant segment expressed in E. coli from pET41 (human)
T2 construct: Segment cloned EcoRI/XhoI into PET41 vector and tested as lysate of the expressing E. coli in western blot; any tags from the vector are not described; not shown: vector-coded fusion part of pET41 (GST is run as the negative control)
T2 chain: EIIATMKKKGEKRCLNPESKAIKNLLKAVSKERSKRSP


What was measured:
[1] = target: T1, recombinant human IP-10 protein …; experiment: western blot on recombinant human IP-10 protein
[2] = target: T2, Epitope 4 of IP-10 (amino acids 61-98), …; experiment: western blot on recombinant IP-10 segments expressed in E. coli
Description: E. coli expressing each of the 4 epitopes of recombinant IP-10 was suspended in PBS buffer (137 mM NaCl, 2.7 mM KCl, 10 mM Na2HPO4, 2 mM KH2PO4) and the same volume of SDS-gel loading buffer (100 mM Tris-C1 (pH 6.8), 4% SDS, 0.2% bromophenol blue, 20% glycerol, 200 mM DTT) and heated at 100° C. for 5 min. The mixture was then centrifuged at 13,000 rpm for 10 min and the supernatant was separated on 12% SDS-PAGE, and the proteins separated on the gel were transferred to a polyvinylidenfluoride membrane. Western blot was performed using anti-IP-10 antibody and enhanced chemiluminescent reagent.

| binding result [1] | binding result [2] | Binder |
| --- | --- | --- |
| binds | binds | anti-IP-10 monoclonal antibody #129 (antibody, V domains shown, Mouse monoclonal antibody from a hybridoma; also called clone #129; clone #129 monoclonal antibody) VH: QVQLKQSGPGLVQPSQSLSITCTVSGFSLTSYGVHWVRQSPGKGLEWLGVIWSGGSTDYNAAFISRLSISKDNSKSQVFFKMNSLQANDTAIYYCARNWGAMDYWGQGTSVTVSS VL: DIVMTQSPSSLSVSAGEKVTMSCKSSQSLLNSGNQKNYLAWYQQKPGQPPKLLIYGASTRESGVPDRFTGSGSGTDFTLTISSVQAEDLAVYYCQNDHSYPLTFGAGTKLELKR |
| binds | binds | anti-IP-10 monoclonal antibody #77 (antibody, V domains shown, Mouse monoclonal antibody from a hybridoma; also called clone #77; clone #77 monoclonal antibody) VH: QIQLVHSGPELKKPGETVKISCKASGYTFTDYSMHWVKQAPGKGLKWMGWINTETGEPTYADDFKGRFAFSLETSASTAYLQINNLKNEDTATYFCARMYDYSYYFDYWGQGTTLTVSS VL: DIQMTQSPASLSVSVGETVTITCRASENIYSNLAWYQQKQGKSPQLLVYAATNLADGVPSRFSGSGSGTQYSLKINSLQSEDFGSYYCQHFWGTPYTFGGGTKLEIKR |

The remaining lines, values behind:

| Binder | binding result [1] | binding result [2] |
| --- | --- | --- |
| anti-IP-10 monoclonal antibody #88 (antibody, V domains shown, Mouse monoclonal antibody from a hybridoma; also called clone #88; clone #88 monoclonal antibody) VH: EVMLVESGGGLVKPGGSLKLSCTVSGFTFSGYAMSWVRQTPEKRLEWVASITSGGSYTSYPDNMKGRLTISRDNDRNTLDLQMSSLRSEDTAMYFCTRHSPVIASWFAYWGQGTLVHC VL: DVLMTQTPLSLPVSLGDQASISCRSSQSIVHSNGNTYLEWYLQKPGQSPKLLIYKVSNRFSGVPDRFSGSGSGTDFTLKISRVEAEDMGVYYCFQGSHVPFTFGSGTKLEIKR | binds | binds |
| anti-IP-10 monoclonal antibody #116 (antibody, V domains shown, Mouse monoclonal antibody from a hybridoma; also called clone #116; clone #116 monoclonal antibody) VH: QVQLQQSGPELVKPGASVKISCKASGYAFSSSWMNWVKQRPGQGLEWIGRIYPGDGDTNYNGKFKGKATLTADKSSSTAYMQLSSLTSVDSAVYFCARIGNYYGSSYLYWYFDVWGAGTTVTVS VL: DIQMTQSPSSLSASLGGKVTITCKASQDIDKYIAWYQHRPGKGPSLLIHYTSTLQPGIPSRFSGSGSGKNYSFSISNLEPEDIATYYCLQYDNLLLTFGAGTKLELKR | binds | binds |
